Article PMC3323696

B1: huntingtin associated protein 1 (HAP1) (natural protein)
chain: MRPKEQVQSGAGDGTGSGDPAAGTPTTQPAVGPAPEPSAEPKPAPAQGTGSGQKSGSRTKTGSFCRSMIIGDSDAPWTRYVFQGPYGPRATGLGTGKAEGIWKTPAAYIGRRPGVSGPERAAFIRELQEALCPNPPPTKKITEDDVKVMLYLLEEKERDLNTAARIGQSLVKQNSVLMEENNKLETMLGSAREEILHLRKQVNLRDDLLQLYSDSDDDDDEEDEEDEEEGEEEEREGQRDQDQQHDHPYGAPKPHPKAETAHRCPQLETLQQKLRLLEEENDHLREEASHLDNLEDEEQMLILECVEQFSEASQQMAELSEVLVLRLEGYERQQKEITQLQAEITKLQQRCQSYGAQTEKLQQMLASEKGIHSESLRAGSYMQDYGSRPRDRQEDGKSHRQRSSMPAGSVTHYGYSVPLDALPSFPETLAEELRTSLRKFITDPAYFMERRDTHCREGRKKEQRAMPPPPAQDLKPPEDFEAPEELVPEEELGAIEEVGTAEDGQAEENEQASEETEAWEEVEPEVDETTRMNVVVSALEASGLGPSHLDMKYVLQQLSNWQDAHSKRQQKQKVVPKDSPTPQQQTNMGGGILEQQPRVPTQDSQRLEEDRATHSPSAREEEGPSGAT

Legend:
[1] = molecular target: tubulin (α-tubulin) (mouse (endogenous in striatum)) (UniProt P68369); assay: co-IP
[2] = molecular target: GABAA receptor (GABAAR β2/3 subunits) (mouse (endogenous in striatum)) (UniProt P63137); assay: co-IP
UniProt P63137, sequence (P63137 whole entry, looked up): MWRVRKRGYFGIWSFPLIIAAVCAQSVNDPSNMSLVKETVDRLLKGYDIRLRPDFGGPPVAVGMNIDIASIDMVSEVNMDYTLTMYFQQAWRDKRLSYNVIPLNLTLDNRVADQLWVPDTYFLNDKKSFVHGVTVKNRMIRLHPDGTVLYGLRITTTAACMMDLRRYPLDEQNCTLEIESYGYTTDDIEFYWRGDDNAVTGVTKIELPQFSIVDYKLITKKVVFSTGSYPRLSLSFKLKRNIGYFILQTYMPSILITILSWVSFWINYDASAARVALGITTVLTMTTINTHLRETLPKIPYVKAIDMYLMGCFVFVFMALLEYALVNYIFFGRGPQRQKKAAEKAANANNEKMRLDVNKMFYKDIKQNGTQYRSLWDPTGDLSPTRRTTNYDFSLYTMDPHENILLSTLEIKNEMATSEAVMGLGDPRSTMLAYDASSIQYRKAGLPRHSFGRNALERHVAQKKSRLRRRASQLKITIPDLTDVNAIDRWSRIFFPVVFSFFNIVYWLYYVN

Molecule	co-precipitated amount in HD (N171-82Q) mice, % of WT mice [1]	co-precipitated amount in HD (N171-82Q) mice, % of WT mice [2]
GABAA receptor (GABAAR β2/3 subunits) (from UniProt P63137 26-512; P63080 26-473)	65.3 % of WT	–
KIF5 heavy chain (from UniProt Q61768 1-963) (natural protein)	35.5 % of WT	41.5 % of WT
tubulin (α-tubulin) (from UniProt P68369 1-451) (natural protein)	–	67.4 % of WT
B1	–	42.9 % of WT
